{"source": "patent US20260356958", "about": "(published 2026)", "assay_in_all_cases": "SPR, 25C", "key": {"hIL-1R3-His [1]": {"biological_target": "hIL-1R3-His (human)", "sequence (chain, as listed by the source)": "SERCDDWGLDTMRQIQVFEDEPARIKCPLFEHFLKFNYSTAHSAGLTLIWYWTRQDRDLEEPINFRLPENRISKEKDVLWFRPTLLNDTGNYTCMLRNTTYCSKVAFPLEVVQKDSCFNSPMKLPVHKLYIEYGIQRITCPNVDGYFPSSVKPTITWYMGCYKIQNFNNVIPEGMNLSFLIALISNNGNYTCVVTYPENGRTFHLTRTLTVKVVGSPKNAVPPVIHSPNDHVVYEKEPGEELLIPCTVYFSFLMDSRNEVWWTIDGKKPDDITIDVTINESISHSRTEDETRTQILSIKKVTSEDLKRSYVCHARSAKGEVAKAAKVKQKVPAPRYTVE"}, "hIL-36R-His [2]": {"biological_target": "T1, hIL-36R-His (human)", "T1 chain": "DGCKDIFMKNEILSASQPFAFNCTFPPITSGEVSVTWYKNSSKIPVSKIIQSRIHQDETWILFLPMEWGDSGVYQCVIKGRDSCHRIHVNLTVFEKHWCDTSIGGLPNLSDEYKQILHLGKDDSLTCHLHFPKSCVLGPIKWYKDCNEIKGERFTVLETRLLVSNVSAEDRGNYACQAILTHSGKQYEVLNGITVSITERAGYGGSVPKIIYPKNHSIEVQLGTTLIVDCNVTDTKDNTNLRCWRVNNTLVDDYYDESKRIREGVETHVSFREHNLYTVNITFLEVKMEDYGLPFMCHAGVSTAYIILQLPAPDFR"}, "hIL-36R-His [3]": {"biological_target": "T1, hIL-36R-His"}, "hIL-36R-His [4]": {"biological_target": "T1, hIL-36R-His"}, "hIL-1R3-His [5]": {"biological_target": "hIL-1R3-His (human)", "remark": "listed apart in the source"}}, "note": "Where two headings read alike, the source gives them in different places."}
{"binder": "Crossmab bispecific antibody, IL-1R3 arm (antibody, V domains shown) VH: EVQLVESGGGLVQPGGSLRLSCAASGFTFSSYAMSWVRQAPGKGLVWVAEISRGGSHTYYPDTVTGRFTISRDNAKNTLYLQMNSLRAEDTAVYYCARSYGNYPFDYWGQGTTVTVSS VL: EIVLTQSPATLSLSPGERATLSCSASSSVSYMYWYQQKPGQAPRLLIYDTSNLASGIPARFSGSGSGTDFTLTISSLEPEDFAVYYCQQWSSYPLTFGQGTKLEIK", "values": [{"measurement": "Kd", "setting": "hIL-1R3-His [1]", "value": 0.761, "unit": "nM"}]}
{"binder": "Common light chain bispecific antibody, IL-36R arm (R72B7VH+L36E9VK) (antibody, V domains shown) VH: QVQLVQSGAEVKKPGASVKVSCKASGYSFTSSWIHWVKQAPGQGLEWMGEINPGNVRSNYNENFRNKVTMTVDTSISTAYMELSRLRSDDTAVYYCTVINYGEPYFASWGQGTLVTVSS VL: EIVLTQSPGTLSLSPGERATLSCRASQSVIGSYLAWYQQKPGQAPRLLIYSASKLASGIPDRFSGSGSGTDFTLTISRLEPEDFAVYYCQQDTRYPITFGQGTKVEIK", "values": [{"measurement": "Kd", "setting": "hIL-36R-His [2]", "value": 1.29, "unit": "nM"}]}
{"binder": "Crossmab bispecific antibody, IL-36R arm (antibody, V domains shown) VH: QVQLVQSGAEVKKPGASVKVSCKASGYSFTSSWIHWVRQAPGQGLEWMGEINPGSGRSNYNENFQGRVTMTVDTSISTAYMELSRLRSDDTAVYYCTVVFYGEPYFPFWGQGTLVTVSS VL: EIVLTQSPGTLSLSPGERATLSCRASQSVIYSYLAWYQQKPGQAPRLLIYSASKRASGIPDRFSGSGSGTDFTLTISRLEPEDFAVYYCQQHAGIPVTFGQGTKVEIK", "values": [{"measurement": "Kd", "setting": "hIL-36R-His [3]", "value": 0.669, "unit": "nM"}]}
{"binder": "R49E11VH-h3+L26B11VK (antibody, V domains shown) VH: QVQLVQSGAEVKKPGASVKVSCKASGYSFTSSWIHWVRQAPGQGLEWMGEINPGSGRSNYNENFQGRVTMTVDTSISTAYMELSRLRSDDTAVYYCTVVFYGEPYFPFWGQGTLVTVSS VL: EIVLTQSPGTLSLSPGERATLSCRASQSVIYSYLAWYQQKPGQAPRLLIYSASKRASGIPDRFSGSGSGTDFTLTISRLEPEDFAVYYCQQHAGIPVTFGQGTKVEIK", "values": [{"measurement": "Kd", "setting": "hIL-36R-His [4]", "value": 2.91, "unit": "nM"}]}
{"binder": "Common light chain bispecific antibody, IL-1R3 arm (R1B9VH-h1+L36E9VK) (antibody, V domains shown) VH: EVQLVESGGGLVQPGGSLRLSCAASGFTFSSYAMSWVRQAPGKGLVWVAEISRGGSHTYYPDTVTGRFTISRDNAKNTLYLQMNSLRAEDTAVYYCARSYGNYPFDYWGQGTTVTVSS VL: EIVLTQSPGTLSLSPGERATLSCRASQSVIGSYLAWYQQKPGQAPRLLIYSASKLASGIPDRFSGSGSGTDFTLTISRLEPEDFAVYYCQQDTRYPITFGQGTKVEIK", "values": [{"measurement": "Kd", "setting": "hIL-1R3-His [5]", "value": 1.44, "unit": "nM"}]}
